Patent US9744188B2, “Methods of promoting neuronal outgrowth by gypican 2 that binds to receptor protein tyrosine phosphatase sigma” (PRESIDENT AND FELLOWS OF HARVARD COLLEGE, priority 2011, dated 2017)
Entries after “also recorded” stand apart in the source; their conditions may differ. Like-named read-outs stand apart in the source and are kept apart here.

T1: mouse RPTPσ sEcto-Fc (Mus musculus, UniProt B0V2N1)
T1 construct: made in house; host or cells: transiently transfected 293T cells
T1 sequence (B0V2N1 30-851 isoform B0V2N1-3 limits assumed): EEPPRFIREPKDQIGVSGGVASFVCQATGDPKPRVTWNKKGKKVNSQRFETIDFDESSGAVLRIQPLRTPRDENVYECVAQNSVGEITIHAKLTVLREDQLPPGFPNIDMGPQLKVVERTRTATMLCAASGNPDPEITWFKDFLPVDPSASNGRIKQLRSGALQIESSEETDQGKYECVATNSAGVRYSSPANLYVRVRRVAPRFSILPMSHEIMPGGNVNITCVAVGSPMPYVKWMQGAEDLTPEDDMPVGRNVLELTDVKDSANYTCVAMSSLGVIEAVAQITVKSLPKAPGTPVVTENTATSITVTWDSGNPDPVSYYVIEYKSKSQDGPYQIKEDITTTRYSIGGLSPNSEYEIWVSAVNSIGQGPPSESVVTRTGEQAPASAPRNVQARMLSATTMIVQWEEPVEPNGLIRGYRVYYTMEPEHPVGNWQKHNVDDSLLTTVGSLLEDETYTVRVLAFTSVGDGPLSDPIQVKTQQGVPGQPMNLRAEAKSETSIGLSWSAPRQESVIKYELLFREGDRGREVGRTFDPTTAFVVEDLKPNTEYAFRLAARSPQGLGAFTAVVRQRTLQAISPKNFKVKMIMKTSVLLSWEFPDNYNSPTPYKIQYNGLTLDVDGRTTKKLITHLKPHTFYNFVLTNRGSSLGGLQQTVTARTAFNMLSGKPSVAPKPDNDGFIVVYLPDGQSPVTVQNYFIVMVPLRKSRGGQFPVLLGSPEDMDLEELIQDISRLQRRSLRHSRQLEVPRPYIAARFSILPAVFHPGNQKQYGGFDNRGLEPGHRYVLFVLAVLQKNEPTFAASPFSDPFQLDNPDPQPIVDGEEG

B1: glypican-2: a representative HSPG; Glypican2-AP fusion in binding assays, recombinant mouse Glypican-2 (2355-GP, R&D Systems) in outgrowth assays (protein)
chain: HGSEAKVVRSCAETRQVLGARGYSLNLIPPSLISGEHLQVCPQEYTCCSSETEQKLIRDAEVTFRGLVEDSGSFLIHTLAARHRKFNEFFREMLSISQHSLAQLFSHSYGRLYSQHAVIFNSLFSGLRDYYEKSGEGLDDTLADFWAQLLERAFPLLHPQYSFPPDFLLCLTRLTSTADGSLQPFGDSPRRLRLQISRALVAARALVQGLETGRNVVSEALKVPVLEGCRQALMRLIGCPLCRGVPSLMPCRGFCLNVAHGCLSSRGLEPEWGGYLDGLLLLAEKLQGPFSFELAAESIGVKISEGLMHLQENSVKVSAKVFQECGTPHPVQSRSRRAPAPREEASRSWRASAEEERPTTAAGTNLHRLVWELRERLSRVRGFWAGLPVTVCGDSRMAADLSQETAPCWTGVGRGRYMSPVVVGSLNEQLHNPELDTSSPDVPTRRRRLHLRAATARMKAAALGQDLDMHDADEDASGSGGGQQYADDWKAGAVPVVPPARPPRPPRPPRRDGLGVRGGSGSARYNQGRSRNLGS
B2: Glypican-2-AP (protein, mouse, UniProt Q8BKV1 22-555, looked up, not shown: large carriers)
chain: HGSEAKVVRSCAETRQVLGARGYSLNLIPPSLISGEHLQVCPQEYTCCSSETEQKLIRDAEVTFRGLVEDSGSFLIHTLAARHRKFNEFFREMLSISQHSLAQLFSHSYGRLYSQHAVIFNSLFSGLRDYYEKSGEGLDDTLADFWAQLLERAFPLLHPQYSFPPDFLLCLTRLTSTADGSLQPFGDSPRRLRLQISRALVAARALVQGLETGRNVVSEALKVPVLEGCRQALMRLIGCPLCRGVPSLMPCRGFCLNVAHGCLSSRGLEPEWGGYLDGLLLLAEKLQGPFSFELAAESIGVKISEGLMHLQENSVKVSAKVFQECGTPHPVQSRSRRAPAPREEASRSWRASAEEERPTTAAGTNLHRLVWELRERLSRVRGFWAGLPVTVCGDSRMAADLSQETAPCWTGVGRGRYMSPVVVGSLNEQLHNPELDTSSPDVPTRRRRLHLRAATARMKAAALGQDLDMHDADEDASGSGGGQQYADDWKAGAVPVVPPARPPRPPRPPRRDGLGVRGGSGSARYNQGRSRNLG
modifications: carries heparan sulfate GAG chains (removed by heparitinase III)
B3: neurocan: a representative CSPG; Neurocan-AP fusion in binding assays, recombinant mouse Neurocan (5800-NC, R&D Systems) in outgrowth assays (protein)
chain: DQDTQDTTATEKGLRMLKSGSGPVRAALAELVALPCFFTLQPRLSSLRDIPRIKWTKVQTASGQRQDLPILVAKDNVVRVAKGWQGRVSLPAYPRHRANATLLLGPLRASDSGLYRCQVVKGIEDEQDLVTLEVTGVVFHYRAARDRYALTFAEAQEACRLSSATIAAPRHLQAAFEDGFDNCDAGWLSDRTVRYPITQSRPGCYGDRSSLPGVRSYGRRDPQELYDVYCFARELGGEVFYVGPARRLTLAGARAQCQRQGAALASVGQLHLAWHEGLDQCDPGWLADGSVRYPIQTPRRRCGGPAPGVRTVYRFANRTGFPAPGARFDAYCFRAHHHTAQHGDSEIPSSGDEGEIVSAEGPPGRELKPSLGEQEVIAPDFQEPLMSSGEGEPPDLTWTQAPEETLGSTPGGPTLASWPSSEKWLFTGAPSSMGVSSPSDMGVDMEATTPLGTQVAPTPTMRRGRFKGLNGRHFQQQGPEDQLPEVAEPSAQPPTLGATANHMRPSAATEASESDQSHSPWAILTNEVDEPGAGSLGSRSLPESLMWSPSLISPSVPSTESTPSPKPGAAEAPSVKSAIPHLPRLPSEPPAPSPGPSEALSAVSLQASSADGSPD

Key:
[1] = target: Mouse RPTPσ sEcto-Fc (mouse) (UniProt B0V2N1); experiment: solid phase binding assay, immobilised mouse RPTPσ sEcto-Fc, bound AP activity; Kd from the binding curve, one-to-one binding assumed; Scatchard inset
[2] = target: RPTPσ on mouse dorsal root ganglion (DRG) neurons (mouse) (UniProt B0V2N1); experiment: cell-based or functional assay
[3] = target: T1, mouse RPTPσ sEcto-Fc; experiment: Solid phase binding assay: proteoglycan-AP fusion proteins on immobilised RPTPσ sEcto-Fc; conditions: neurocan pre-treated with chondroitinase ABC; glypican-2 pre-treated with heparitinase III
Protocol: Analysis of binding between RPTPσ sEcto-Fc and Glypican-2 or Neurocan alkaline phosphate (AP) fusion proteins was performed as described previously (S2, S26). All fusion proteins were produced in transiently transfected 293T cells. Briefly, the RPTPσ Fc-fusion protein was immobilised on 96-well Reactibind Protein A-coated plates (Pierce) and incubated with soluble proteoglycan-AP proteins which had been normalized for equal input AP activity. AP activity was determined by measuring substrate turnover on a microplate reader as described (S27, S28). […] In FIG. 23, the binding between RPTPσ-Fc and heparin-derived size-fractionated oligosaccharides with different lengths (HS6, HS8, HS10, HS17, HS23, HS30 and HS67, corresponding to hexasaccharide, octasaccharide, decasaccharide, or approximately 17, 23, 30 and 67 saccharide units; molecular weights 1,800 Da, 3,000 Da, 5,000 Da, 7,000 Da, 9,000 Da, and 20,000 Da; Neoparin) was analyzed with RPTPσ-Fc immobilised on 96-well Reactibind Protein A-coated plates (Pierce) and incubated with soluble biotinalated HS. The bound HS was quantified by AP enzyme activity following incubation with streptavidin-AP (Promega). […]

[4] = tested on: wild-type mouse DRG neurons; experiment: DRG neurite outgrowth assay (GAP-43 immunostaining, total neurite outgrowth); assay type: cell-based; conditions: for effect on neurite outgrowth of wild-type neurons: poly-D-lysine/laminin supplemented with neurocan 5 μg/ml or glypican-2 30 μg/ml
Protocol: (§1) DRGs of P8-12 RPTPσ^+/+ or RPTPσ^−/− mice were cut off from all roots. Neurons were dissociated and subjected to neurite outgrowth assays and analysis as described previously (S2). For experiments in FIG. 1, recombinant mouse Neurocan (5800-NC, R&D Systems) was used at 5 μg/ml and recombinant mouse Glypican-2 (2355-GP, R&D Systems) at 30 μg/ml. In FIG. 5, 30 μg/ml of Glypican-2 was pre-incubated with 1 unit/ml of Heparitinase III (HPNIII, H8891, Sigma) at 37° C. for 4 hrs where indicated, prior to use in outgrowth assays. For experiments in FIG. 19, recombinant mouse glypican-2 was used at 5 μg/ml, and Chondroitin Sulfate Proteoglycan mixture (CSPG, CC117, Millipore) was at 125 μg/ml. For experiments in FIGS. 24 and 25, Chondroitin Sulfate Proteoglycan mixture (CSPG, CC117, Millipore) was at 60 μg/ml, with or without the addition of HS at indicated length and concentration (1 μM for all HS in […]). Proteoglycans and heparin oligosaccharides were added to neuronal cultures 30 min after seeding and were replenished 24 hrs later. At 48 hrs after seeding, cells were fixed and immunostained with anti-GAP43 antibody (NB300-143, Novus). The whole of each well was scanned with a fluorescence microscope and the images were then analyzed for total neurite outgrowth using the Metamorph program.

[5] = tested on: RPTPσ−/− P8 mouse DRG neurons; experiment: DRG neurite outgrowth assay in RPTPσ−/− neurons; assay type: cell-based; conditions: neurocan 5 μg/ml or glypican-2 30 μg/ml; 48 hours
Protocol: as §1

[6] = target: Mouse RPTPσ sEcto-Fc (mouse) (UniProt B0V2N1); experiment: solid phase binding assay, immobilised mouse RPTPσ sEcto-Fc, bound AP activity; Kd from the binding curve, one-to-one binding assumed; Scatchard inset; remark: listed apart in the source

Molecule | binding to RPTPσ after enzymatic removal of GAG chains [3] | effect on neurite outgrowth of wild-type neurons ([4]; 48 hours) | effect on neurite outgrowth of RPTPσ−/− neurons compared with wild-type [5] | further results
Neurocan-alkaline phosphatase |  |  |  | Kd [1]: 21.2 nM
recombinant mouse Neurocan (5800-NC, R&D Systems) (from UniProt P55066 23-637) |  |  |  | decrease in outgrowth of wild-type DRG neurons (neurite outgrowth assay) [2]: 60%
B1 | dramatically reduced binding | strongly promoted outgrowth; also recorded: promotion of outgrowth | reduced to undetectable levels | neurite outgrowth relative to control at lower concentration ([4]; glypican-2 5 μg/ml, wild-type P10 DRG neurons (FIG. 19)): promoted outgrowth to a lesser extent; growth-promoting effect after heparitinase III treatment ([4]; glypican-2 30 μg/ml pre-incubated with 1 unit/ml HPNIII): significantly reduced its growth-promoting ability; also recorded: did not completely eliminate the growth promoting effect
B2 |  |  |  | Kd [6]: 10.5 nM
B3 | dramatically reduced binding | inhibition | inhibitory effect was decreased | reduction of neurite outgrowth ([4]; wild-type DRG neurons, neurocan 5 μg/ml, 48 hours): approximately 60%
